Results from the supplement of paper PMC9170038.

Tested on: MS2 coat protein
Test: apparent KD of MS2 coat protein; designed switch direction (-1 OFF switch, 1 ON switch): -1; higher = weaker reporter binding
In short: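 Designed RNA switches sharing common flanks were transcribed on Illumina chips by stalled E. coli RNA polymerase. They were titrated with SNAP-549-labelled MS2 coat protein, from 0.7 or 1.5 nM doubling to 3 µM, in Tris-HCl pH 7.5 buffer with KCl, MgCl2, BSA, DTT, tRNA and Tween-20. Titrations ran without input, with 200 uM small-molecule ligand, or with an oligonucleotide input. The apparent KD of each design is the median over its clusters, after curve-fitting of normalised cluster fluorescence.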

[1] = input ligand: microRNA oligo, concentration not stated
[2] = Eterna round: R95, input ligand: microRNA oligo, concentration not stated
[3] = Eterna round: R95, input ligand: FMN 200 uM
[4] = Eterna round: R95, input ligand: none

Sequence	apparent KD of MS2 coat protein (input ligand: FMN 200 uM) [nM]	apparent KD of MS2 coat protein [1] [nM]	apparent KD of MS2 coat protein (input ligand: none) [nM]	apparent KD of MS2 coat protein [2] [nM]	apparent KD of MS2 coat protein [3] [nM]	apparent KD of MS2 coat protein [4] [nM]
CGGUGUAACAGAGGAUAUCAGCGCAACUGACGAUGAGAAGGCUGACAUGAGGAUCACCCAUGUGAUUUCUCAAUAUUAUACAUC [Prohibition 88 - Jieux - Exclusion NG 1] (Eterna round: R96, puzzle: Exclusion NG 1)	371	72.3	100			
GAUGUGUUAGGAUAUCGAAGUAUCUGUGCUGUGGCGAAUCACGAGAAGGAACAUGAGGAUCACCCAUGUGGUUG [Eternabot (L2) Solution 34] (Eterna round: R97, puzzle: Exclusion 4)	68.9		63.9			
AAUUAUUUAUGAGGAUAUUGUGGUGAAACACCACAAGAAGGCAUGAUACACAUGAGGAUCACCCAUGUGAGCCUGAUGCUUAUG [Ex NG1 #54] (Eterna round: R96, puzzle: Exclusion NG 1)		13.7				
UUUGUUUUGGUAGGAUAUACUUUUAAUUUCUCUUUCCUUACAUGAGGAUCACCCAUGUUUACAUUGUAGAAGGACCACUUUGUU [JR_ExcNG2_Sub050] (Eterna round: R96, puzzle: Exclusion NG 2)		15.9				
GCAGGUUAAGUCAGGAUAUACCUAUGGAUACAUAGGUAGAAGGGACAUGAGGAUCACCCAUGUGACUCGCCUGC [Fiskers BMX 4 - 61] (puzzle: Brourd's mod of Exclusion 4)				25.6		
AAAAAUCGAGGAUAUACAUGAGGAUCACCCAUGUGGGACCAAGAAAACACAAAAGAAAGUAGAAGGCGAUAAAA [Ex 3 May 23] (Eterna round: R96, puzzle: Exclusion 3)	110	25.8	31.7			
AUGAGUUGAGGAUAUACGUGAGGCGUUAACGCCGCCAGUCAACAUGAGGAUCACCCAUGUAGAAGGCAACCGUC [Eternabot (L1) Solution 6] (Eterna round: R97, puzzle: Exclusion 2)	22.1		19.7			
GUCACUAGAGGAUAUACAAUGGUAUAUGAUCCUAGAGACAUACAUGAGGAUCACCCAUGUAGAAGGCUAGUAUU [Exclusion 2 - 5] (Eterna round: R96, puzzle: Exclusion 2)	52.9	53.1	52.5			
UUUUAACAUGAGGAUCACCCAUGUGAGGAUAUCGAAAUUUAUAUUAAUAUUUUUAUUACGAGAAGGCACAUUUU [JMF 74] (puzzle: Exclusion 1)				70.5		
UCUAGACAUGAGGAUCACCCAUGUGAGGAUAUGAUGCGAUCGUCGAAAGACGAUAGCAUCAGAAGGCACAAAUG [Fiskers Ex 1 - 12] (puzzle: Exclusion 1)				56.9	153	69.9
AGAUCUCAUGACGUUUGCAACAUGAGGAUCACCCAUGUGAGGAGGGUAAACAAACCAAGCUUCGUGCUCGUCUAUAA [Eternabot (Original) Solution 46] (Eterna round: R97, puzzle: Sensor, turn-off variant 1)	38.9		52.3			
GUUUUGAGACGGAGAUCCGACAUGAGGAUCACCCAUGUCUCGCAAGCUUUUUGCUCGUCUUAUACUCCUCUGUUCUC [Elimod 45 - Jieux - Sensor, turn-off variant 1] (Eterna round: R97, puzzle: Sensor, turn-off variant 1)	17.8		17.1			
GAUGCUCCGGUCAGGAUAUCAGGUGCAAGCACCGGUGAGAAGGGACAUGAGGAUCACCCAUGUAAAAUAAGACC [Aenxeza] (Eterna round: R97, puzzle: Brourd's mod of Exclusion 4)	40.7		24			
AUUAGUAAUAAGGAUAUCACUAGCCUCGGCUAGUGAGAAGGUAUUACAUGAGGAUCACCCAUGUGAUCAAUUAA [E6/3-A2] (Eterna round: R97, puzzle: Exclusion 6)	287		474			
CAGUACUGAGGAUAUACAUGAGGAUCACCCAUGUGAUUGAGUGCACGCGUACGUGUACGUAGAAGGCAGUACUG [JL 3.27 m11] (Eterna round: R97, puzzle: Exclusion 3)	194		18.1			
GCGUACUGAGGAUAUACAUGAGGAUCACCCAUGUGACUAAGAUUUUAGUGAUGAUUUUGUAGAAGGCAGUAUGC [JR_Ex3_Sub061] (Eterna round: R97, puzzle: Exclusion 3)	344		91.4			
GAACUGAGGCAAAGCUUUAGUCGUACAUGAGGAUCACCCAUGUAGGAUAUGGUAGGCAAAGCUUACCAGAAGGACAGAGUGAUC [Mat - Exclusion NG 3 - Mod of JL - D60] (Eterna round: R96, puzzle: Exclusion NG 3)	498	260	257			

Sequence	apparent KD of MS2 coat protein (input ligand: FMN 200 uM) [nM]	apparent KD of MS2 coat protein [1] [nM]	apparent KD of MS2 coat protein (input ligand: none) [nM]	apparent KD of MS2 coat protein [2] [nM]	apparent KD of MS2 coat protein [3] [nM]	apparent KD of MS2 coat protein [4] [nM]
GAUUACAACGAAGACAAGCACAUGAGGAUCACCCAUGUGUAAAAUCGAGUGGGCCCACUCGUACCUCAACACCGUCU [JR_Sensorv2_tov_Sub304] (Eterna round: R96, puzzle: Sensor v2, turn-off variant)	18.9	15.8	19.8			
CGGCAUGUACAAGGAUAUCAGCACGUUUAGUGCUGAGAAGGUGUAACAUGAGGAUCACCCAUGUAGAUCAUUAACCGAUUAAUU [ENG1/9-A1] (Eterna round: R96, puzzle: Exclusion NG 1)	128	48.1	59			
UUUAGUAUCUAGGAUAUCUAGUACAUAGUAUCUAGAGAAGGAGAUACAUGAGGAUCACCCAUGUUCUGUGUUCU [Exclusion 6 - 1:a] (puzzle: Exclusion 6)				22.4		
UUAAAUCAUGUAGGAUAUGCGUGGCAAAGCUAUGCAGAAGGACAUGAGGAUCACCCAUGUUCUAGCGUCUGCGUACAGAUGCUA [Mat - Exclusion NG 1 - Mod of JL - D77] (Eterna round: R96, puzzle: Exclusion NG 1)	249	34.9	42.6			
AGUAGUAGUAUCCGAUCCUACAUGAGGAUCACCCAUGUAGCUAGACGUGCGCGCGAUGCUCGUCAGACUACCAGAUG [salish99_TOv1_r3_047] (puzzle: Sensor v3, turn-off variant 1)				198	159	276
CGAUGUUAUGUCAGGAUAUGCGUUGCGAAAGCAAUGCAGAAGGGACAUGAGGAUCACCCAUGUCCUAACCAUCG [Omei A 5] (puzzle: Brourd's mod of Exclusion 4)				12.7		
AUCUGCACGCUGCGGUCCUACAUGAGGAUCACCCAUGUGGUCUGGUGGCGUGGGUCGCCGGACUUGGCUCGUCUUGG [salish99_S_TOV1_R5_050] (Eterna round: R97, puzzle: Sensor, turn-off variant 1)	15.4		15.2			
UGAUCAGACCGAGGAUAUACAUGUAGGACGCACGUGAGUGCGUCCAAUACAUGAGGAUCACCCAUGUAGAAGGCGGUCUGAUCU [JL ENG2 1.94] (Eterna round: R96, puzzle: Exclusion NG 2)	181	76.4	86.7			
UUUUUUGGGCAAGGAUAUCCUGUGCGGUUCCGGCUCGUGUCUGUUACAUGAGGAUCACCCAUGUGGGAGAAGGUGCCUGUGGUU [Design 86] (Eterna round: R96, puzzle: Exclusion NG 2)	183	37.3	43			
UUUACAAGCUAAUGAUCCCACAUGAGGAUCACCCAUGUUGCUGCCGUGAGGUAGCUUUUAACAUUUGCUCGUCUUAU [JL TOV1 3.40] (Eterna round: R97, puzzle: Sensor, turn-off variant 1)	733		1060			
ACAUGAGGAUCACCCAUGUCAGGCUGGUCCGCUCCGGCUGUUGAGGAUAUAGCCCGGUAUCCGCGCUAGAAGGUGAGGGCCGGC [Aenatbe mod 28] (Eterna round: R96, puzzle: Exclusion NG 3)	24.8	26.3	28.4			
GAUUAUGCGAGCUUUAGGGACAUGAGGAUCACCCAUGUUCGUCUUAUUGAUCUAGGUGCGCUAACAUACCUAAAUCU [JMF 49] (puzzle: Sensor v3, turn-off variant 1)				34.7	26.2	30
AAGCACAGAGGAUAUACAAUCCUCAGUGGGUCUGGCGAGCCACAUGAGGAUCACCCAUGUAGAAGGCUGGGCUC [Xezaoron] (puzzle: Exclusion 2)				11		
UUUUAACAUGAGGAUCACCCAUGUGAGGAUAUCGAAAUUUAUAUUUAUAUUUAUAUAACGAGAAGGCACAUUUU [JMF 95] (puzzle: Exclusion 1)				68.3		
GGUCAGACGGUAGGAUAUCCAUAUUGAGUGACCCUUUCAUAACAUGAGGAUCACCCAUGUCGGUGGGAGAAGGGCCGUACGGCG [salish99_ExNG02_R04_006] (Eterna round: R96, puzzle: Exclusion NG 2)	205	214	411			
GGUCCACAUGAGGAUCACCCAUGUUAGGAUAUCUCGCCCGAGUCGUUAUGGGCCAGGCAGAGAAGGAAUGUGAA [Cebeisve] (puzzle: Exclusion 1)				18		
UUUCCCUGUGUGAGGAUAUACUUGUUUGGGUUUUUGUAGAAGGCACAUGAGGAUCACCCAUGUACUCUGUCGUG [JR_BME4_Sub021] (puzzle: Brourd's mod of Exclusion 4)				21.1		
